24 molecules from patent publication US20200345804A1 can be followed below.

Where no end group is shown, it is not given here. [ ]: non-standard residue; d: D form. NMeA = CN[C@@H](C)C(=O)O

Experiment [1] concerns the target BIR3 domain of XIAP (human, residues 253-347, N-terminal His tag) (human). Nature of the experiment: ITC, difference to N-Me-AVPF-NH2. (In general: Isothermal titration calorimetry measures the heat released or taken up as one component is titrated into another.)
The target is the same in experiment [2]. Nature of the experiment: ITC.
The target in experiment [3] is recombinant BIR3 domain of cIAP1 with N-terminal 6xHis tag (Artificial Sequence). Description: DELFIA displacement of AVPI-Biotin.
Experiment [4] has as its target BIR2 domain of XIAP (Artificial Sequence). Nature of the experiment: DELFIA displacement assay on XIAP BIR2.
The target in experiment [5] is BIR3 domain of XIAP (human, residues 253-347, N-terminal His tag) (human). Description: DELFIA displacement of AVPI-Biotin.
Experiment [6] has as its target recombinant BIR3 domain of cIAP2 with N-terminal 6xHis tag (Artificial Sequence). Nature of the experiment: DELFIA displacement, 2-h incubation.
Experiment [7] deals with recombinant BIR3 domain of cIAP1 with N-terminal 6xHis tag (Artificial Sequence). Description: DELFIA displacement, 2-h incubation.
The target of experiment [8] is BIR3 domain of XIAP (human, residues 253-347, N-terminal His tag) (human). Description: DELFIA displacement, 2-h incubation.
For experiment [9] the target is unchanged. Nature of the experiment: ITC, full curve titration.
Experiment [10] addresses recombinant BIR3 domain of cIAP2 with N-terminal 6xHis tag (Artificial Sequence). Nature of the experiment: DELFIA displacement of AVPI-Biotin.
The target is the same in experiment [11]. Nature of the experiment: DELFIA displacement of AVPI-Biotin. This is another data set of the same source.
Target sequence in this assay (chain, as listed by the source limits assumed): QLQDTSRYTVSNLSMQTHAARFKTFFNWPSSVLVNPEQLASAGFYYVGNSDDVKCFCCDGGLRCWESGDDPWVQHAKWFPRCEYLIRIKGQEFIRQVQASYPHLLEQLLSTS
For experiment [12], the target named is recombinant BIR3 domain of cIAP1 with N-terminal 6xHis tag (Artificial Sequence). Description: DELFIA displacement of AVPI-Biotin. This is another data set of the same source.
Target sequence in this assay (chain, as listed by the source limits assumed): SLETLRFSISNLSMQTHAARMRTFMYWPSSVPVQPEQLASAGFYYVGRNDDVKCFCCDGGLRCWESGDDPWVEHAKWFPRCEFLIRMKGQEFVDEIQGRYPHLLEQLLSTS
For experiment [13], the target named is BIR3 domain of XIAP (human, residues 253-347, N-terminal His tag) (human). Description: DELFIA displacement of AVPI-Biotin. This is another data set of the same source.
Target sequence in this assay (chain, as listed by the source): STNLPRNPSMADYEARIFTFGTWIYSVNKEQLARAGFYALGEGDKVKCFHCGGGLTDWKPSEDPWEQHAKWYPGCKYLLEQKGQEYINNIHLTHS

With “compound 6 (N-Me-Ala-P2-Pro-Phe-NH2, P2 = (3F-4CF3)Phe) (peptide)”, in [1], the δ(-TΔS) is -0.2 kcal/mol and the δ(ΔH) is -0.3 kcal/mol. Also, in experiment [2], the -TΔS is -1.2 kcal/mol; the Kd (in general, the equilibrium constant for the complex coming apart) turned out to be 155 nM; the ΔH was -8.1 kcal/mol.
In [1], “compound 10 (N-Me-Ala-P2-Pro-Phe-NH2, P2 = (2F-4CF3)Phe) (peptide)” yielded a δ(-TΔS) of -0.8 kcal/mol and a δ(ΔH) of 0.4 kcal/mol. In [2], the -TΔS was -1.8 kcal/mol, the Kd was determined as 194 nM and the ΔH is -7.4 kcal/mol.
The corresponding values for “compound 13 (N-Me-Ala-P2-Pro-Phe-NH2, P2 = (p-guanidino)Phe) (peptide)” are -1.3 kcal/mol, 0.9 kcal/mol, -2.3 kcal/mol, 182 nM and -6.9 kcal/mol.
In experiment [1], “compound 8 (N-Me-Ala-P2-Pro-Phe-NH2, P2 = Cyclohexyl Glycine) (peptide)” came in with a δ(-TΔS) of -0.4 kcal/mol and a δ(ΔH) of 0 kcal/mol. In experiment [2], the -TΔS is -1.4 kcal/mol, the Kd came out at 354 nM and the ΔH is -7.8 kcal/mol.
In [1], “compound 2 (N-Me-Ala-P2-Pro-Phe-NH2, P2 = (4SO3^-)-Phe) (peptide)” displayed a δ(-TΔS) of 0 kcal/mol and a δ(ΔH) of -0.5 kcal/mol. Moreover, the IC50 (usually the point on the concentration scale where inhibition reaches its midpoint) in [3] turned out to be 144 nM.
Molecule NMe-Ala-pSFB-Dap-Pro-Phe-NH2 (peptide) registered an IC50 in experiment [4] of 2220 nM.
In [1], “compound 5 (N-Me-Ala-P2-Pro-Phe-NH2, P2 = (3Cl-4CF3)Phe) (peptide)” registered a δ(-TΔS) of 0.1 kcal/mol and a δ(ΔH) of -0.5 kcal/mol. Besides, in experiment [2], the -TΔS was -0.9 kcal/mol, the Kd came out at 190 nM and the ΔH is -8.3 kcal/mol.
As for “N-Me-Ala-(p-phosphonomethyl)Phe-Pro-Phe-NH2 (peptide)”, in experiment [1], the δ(-TΔS) is 4 kcal/mol and the δ(ΔH) was -4.4 kcal/mol. The molecule also yielded an IC50 in experiment [5] of 35 nM.
MeNH-A-Dap(4-VSB)P-F-CONH2 (peptide): the figures for the IC50 in [6], in experiment [7] and in [8] were 1.3 nM, 4.3 nM and 31 nM, respectively.
As to “compound 12 (N-Me-Ala-P2-Pro-Phe-NH2, P2 = (4-OCF3)Phe) (peptide)”, in experiment [1], the δ(-TΔS) was -0.9 kcal/mol and the δ(ΔH) came out at 0.7 kcal/mol. In experiment [2], this molecule had a -TΔS of -1.9 kcal/mol, a Kd of 227 nM and a ΔH of -7.1 kcal/mol.
MeHN-A-Dap(3-FSB)-P-F-NH2 (peptide) gave an IC50 in experiment [5] of 47.3 nM.
Take “compound 7 (N-Me-Ala-P2-Pro-Phe-NH2, P2 = (3Cl-5CF3)Phe) (peptide)”: in experiment [1], the δ(-TΔS) is -0.3 kcal/mol and the δ(ΔH) was -0.2 kcal/mol. Further, in [2], the -TΔS was -1.3 kcal/mol, the Kd was determined as 133 nM and the ΔH was -8 kcal/mol.
For the molecule MeHN-A-Dap(4-FSBz)-P-F-CONH2 (peptide), the IC50 in experiment [6] worked out at 85.7 nM; in [7], 18.6 nM; in experiment [8] it was 17.1 nM.
Regarding AVPI (peptide), the ΔH in [9] is -4.3 kcal/mol. Also, in experiment [2], the -TΔS was -4 kcal/mol, the Kd was found to be 825 nM and the ΔG is -8.3 kcal/mol. Moreover, the IC50 in experiment [10] came to 320 nM. The IC50 in [5] was 957 nM.
In experiment [1], “compound 9 (N-Me-Ala-P2-Pro-Phe-NH2, P2 = Dab) (peptide)” registered a δ(-TΔS) of -0.4 kcal/mol and a δ(ΔH) of 0.1 kcal/mol. In experiment [2], the -TΔS was -1.4 kcal/mol, the Kd was 230 nM and the ΔH was -7.7 kcal/mol.
For “MeHN-A-Dap(p-OSO2F-Benzamide)-P-F-CONH2 (peptide)”, the IC50 in experiment [6] is greater than 1000 nM; in experiment [7] it was 335 nM.
In experiment [1], “compound 14 (N-Me-Ala-P2-Pro-Phe-NH2, P2 = (2F-4CF3-5Me)Phe) (peptide)” showed a δ(-TΔS) of -2.3 kcal/mol and a δ(ΔH) of 1.4 kcal/mol. In addition, in experiment [2], the -TΔS was -3.3 kcal/mol, the Kd is 81 nM and the ΔH is -6.4 kcal/mol.
Regarding MeHN-A-F(OSO2F)-P-F-CONH2 (peptide), the IC50 in experiment [6] was 343 nM.
Ala-pTyr-Pro-(4F)Phe-NH2 (peptide) showed a ΔH in experiment [9] of -12.2 kcal/mol. In experiment [2], this molecule came in with a -TΔS of 3.04 kcal/mol, a dissociation constant (Kd) of 205 nM and a ΔG of -9.13 kcal/mol. Also, in experiment [10], the IC50 was found to be 143 nM. Also, the IC50 in experiment [3] turned out to be 124 nM. Moreover, the IC50 in experiment [5] came out at 40.1 nM.
Take MeNH-A-hF(OSO2F)-P-F-CONH2 (peptide): the figures for the IC50 in [6], in experiment [7] and in experiment [8] were 188 nM, 26 nM and 197 nM, respectively.
As to “compound 11 (N-Me-Ala-P2-Pro-Phe-NH2, P2 = Phe(4-CF3)) (peptide)”, in experiment [1], the δ(-TΔS) was -0.9 kcal/mol and the δ(ΔH) was found to be 0.6 kcal/mol. In addition, in experiment [2], the -TΔS was -1.9 kcal/mol, the Kd was 213 nM and the ΔH was -7.2 kcal/mol.
The corresponding values for “compound 3 (N-Me-Ala-P2-Pro-Phe-NH2, P2 = (4-NO2)-Phe) (peptide)” are 0.9 kcal/mol, -1.1 kcal/mol, -0.1 kcal/mol, 280 nM and -8.9 kcal/mol.

B1: N-Me-AVPF-NH2 (peptide)
peptide: [NMeA]VPF-NH2
In experiment [2], B1 displayed a -TΔS of -1 kcal/mol and a ΔH of -7.8 kcal/mol.

B2: AVPF (peptide)
peptide: AVPF
For B2, the ΔH in [9] is -7.64 kcal/mol. Further, in [2], the Kd was found to be 175 nM. In addition, the figures for the IC50 in [11], in [12] and in experiment [13] were 168 nM, 50.9 nM and 60 nM, respectively.
